{
  "source": "patent US20050196797",
  "key": {"[1]": {"test_system": "SMGBP1 (SMG Binding Protein 1)", "sequence (chain, as listed by the source)": "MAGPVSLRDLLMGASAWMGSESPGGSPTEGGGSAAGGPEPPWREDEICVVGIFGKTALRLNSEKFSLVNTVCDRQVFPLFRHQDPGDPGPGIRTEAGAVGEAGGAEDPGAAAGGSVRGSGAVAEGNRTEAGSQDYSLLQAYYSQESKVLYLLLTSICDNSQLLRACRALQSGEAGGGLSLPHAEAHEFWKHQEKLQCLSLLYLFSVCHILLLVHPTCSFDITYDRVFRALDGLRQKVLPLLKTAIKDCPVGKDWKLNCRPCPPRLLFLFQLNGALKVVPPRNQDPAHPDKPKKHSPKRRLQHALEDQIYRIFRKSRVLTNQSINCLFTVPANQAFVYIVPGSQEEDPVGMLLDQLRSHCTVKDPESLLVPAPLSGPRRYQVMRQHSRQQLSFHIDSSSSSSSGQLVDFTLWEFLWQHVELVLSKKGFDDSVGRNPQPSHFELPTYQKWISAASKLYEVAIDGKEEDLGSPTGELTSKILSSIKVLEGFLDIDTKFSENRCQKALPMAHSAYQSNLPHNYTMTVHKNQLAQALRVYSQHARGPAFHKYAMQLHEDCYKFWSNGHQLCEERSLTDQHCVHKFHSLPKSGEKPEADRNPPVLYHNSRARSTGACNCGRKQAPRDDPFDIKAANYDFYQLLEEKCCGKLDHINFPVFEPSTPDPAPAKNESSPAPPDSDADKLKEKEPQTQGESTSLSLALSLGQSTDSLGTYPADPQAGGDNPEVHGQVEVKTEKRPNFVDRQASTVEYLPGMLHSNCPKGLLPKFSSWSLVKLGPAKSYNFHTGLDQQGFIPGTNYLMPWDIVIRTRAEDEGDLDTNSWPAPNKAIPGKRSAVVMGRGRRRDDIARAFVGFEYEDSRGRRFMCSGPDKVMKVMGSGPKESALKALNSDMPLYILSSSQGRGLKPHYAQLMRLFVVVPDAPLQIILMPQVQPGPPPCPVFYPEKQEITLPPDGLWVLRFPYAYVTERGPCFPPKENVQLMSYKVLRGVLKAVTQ"}, "[2]": {"test_system": "protein having a molecular weight of 70 kDa (p70)"}},
  "data": [
    {"substance": "human SMG-1 (hSMG-1)", "values": [
      {"measurement": "phosphorylation in the hSMG-1 immunoprecipitate (32P autoradiography)", "setting": "[1]", "value": "a protein having a molecular weight of 130 kDa (p130) and a protein having a molecular weight of 70 kDa (p70), were detected as phosphorylated proteins. The patterns of phosphorylation thereof accorded exactly with those of autophosphorylation of hSMG-1."},
      {"measurement": "phosphorylation in the hSMG-1 immunoprecipitate (32P autoradiography)", "setting": "[2]", "value": "a protein having a molecular weight of 130 kDa (p130) and a protein having a molecular weight of 70 kDa (p70), were detected as phosphorylated proteins. The patterns of phosphorylation thereof accorded exactly with those of autophosphorylation of hSMG-1."}
    ]}
  ]
}
